We go through three variants from FireProtDB (doi:10.1021/bi00492a006).

The labels stand for the following.
B1: Ribonuclease, P00648 (parent)
chain: MMKMEGIALKKRLSWISVCLLVLVSAAGMLFSTAAKTETSSHKAHTEAQVINTFDGVADYLQTYHKLPDNYITKSEAQALGWVASKGNLADVAPGKSIGGDIFSNREGKLPGKSGRTWREADINYTSGFRNSDRILYSSDWLIYKTTDHYQTFTKIR

This data set covers variants of B1. The note with it: Bacillus amyloliquefaciens; pH 6.3; 25 °C; Urea; Fluorescence; MES-NaOH 50 mM; reversible: yes; structure 1BNI; whole UniProt chain shown.

As to T63R, the “ddG of mutation (higher = less stable)” value came to 0.78 kcal/mol, the denaturant m value was determined as 1.94 kcal/mol/M, the “denaturant midpoint (higher = more stable)” value (“denaturant midpoint” below) was determined as 4.75 M and the unfolding free energy stood at 9.23 kcal/mol.

Regarding D59A T63R, the “ddG of mutation (higher = less stable)” value is 0.13 kcal/mol, the denaturant m value stood at 2.24 kcal/mol/M, the “denaturant midpoint” value is 4.4 M and the unfolding free energy amounted to 9.88 kcal/mol.

On to D59A, for which the “ddG of mutation (higher = less stable)” value is -0.11 kcal/mol, the denaturant m value was found to be 2.33 kcal/mol/M, the “denaturant midpoint” value worked out at 4.33 M and the unfolding free energy came out at 10.1 kcal/mol.
